# B1: MabA (antibody, human IgG2, V domains shown)
# VH: QVQLVESGGGLVKPGGSLRLSCAASGFTFSDYYMNWIRQAPGKGLEWVSYISSSGSIIYYADSVKGRFTISRDNAKNSLYLQMNSLRAEDTAVYYCAREGRIAARGMDVWGQGTTVTVSS
# VL: DIQMTQSPSSLSASVGDRVTITCRPSQSFSRYINWYQQKPGKAPKLLIYAASSLVGGVPSRFSGSGSGTDFTLTISSLQPEDFATYYCQQTYSNPPITFGQGTRLEIK
# notes: Full-length human IgG2; also called anti-PDGFR-alpha antibody; human IgG2 anti-PDGFR-alpha antibody
# Target: the molecule itself
# Assay: stopped-flow kinetics with light scattering detection, dilution from 10 to 1 mg/ml at 4 C, self-association
# Source text: High molecular weight forms are known to cause increased intensity of light scattering compared to monomer. Dissociation of the MabA present in the HPSEC shoulder, (apparent molecular weight of 213 kDa) would, therefore, be expected to result in a decrease in light scattering.
protein,measurement,value
B1,apparent half-life of dissociation of the self-associated species,14 s
